Reference: paper PMC2172333 (The Journal of Cell Biology, 2004)
Each block holds one binder with its values, some of them ahead of it.

What was measured:
Test in all cases: pull-down
[1] = molecular target: T1, NH2-terminal domain of Net1 (Net1 1-600) (yeast, UniProt P47035 1-600)
T1 sequence: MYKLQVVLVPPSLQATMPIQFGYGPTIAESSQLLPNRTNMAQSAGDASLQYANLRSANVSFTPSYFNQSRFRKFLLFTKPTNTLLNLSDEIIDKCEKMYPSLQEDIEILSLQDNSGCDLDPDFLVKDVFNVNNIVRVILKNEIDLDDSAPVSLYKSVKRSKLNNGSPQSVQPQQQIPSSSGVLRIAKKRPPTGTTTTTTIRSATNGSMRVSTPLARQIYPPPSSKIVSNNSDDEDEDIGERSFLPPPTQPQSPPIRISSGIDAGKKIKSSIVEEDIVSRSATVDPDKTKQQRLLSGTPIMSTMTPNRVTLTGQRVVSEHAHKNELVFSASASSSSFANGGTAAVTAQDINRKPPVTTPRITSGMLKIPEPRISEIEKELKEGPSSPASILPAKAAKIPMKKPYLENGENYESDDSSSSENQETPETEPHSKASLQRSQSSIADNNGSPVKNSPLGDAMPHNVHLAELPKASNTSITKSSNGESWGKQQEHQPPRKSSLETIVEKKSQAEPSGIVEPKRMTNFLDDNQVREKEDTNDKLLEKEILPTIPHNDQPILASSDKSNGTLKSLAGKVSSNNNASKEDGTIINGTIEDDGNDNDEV

MBP-Bfa1 = molecular target: T2, MBP-Bfa1 (yeast, UniProt P47113 1-574)
T2 sequence: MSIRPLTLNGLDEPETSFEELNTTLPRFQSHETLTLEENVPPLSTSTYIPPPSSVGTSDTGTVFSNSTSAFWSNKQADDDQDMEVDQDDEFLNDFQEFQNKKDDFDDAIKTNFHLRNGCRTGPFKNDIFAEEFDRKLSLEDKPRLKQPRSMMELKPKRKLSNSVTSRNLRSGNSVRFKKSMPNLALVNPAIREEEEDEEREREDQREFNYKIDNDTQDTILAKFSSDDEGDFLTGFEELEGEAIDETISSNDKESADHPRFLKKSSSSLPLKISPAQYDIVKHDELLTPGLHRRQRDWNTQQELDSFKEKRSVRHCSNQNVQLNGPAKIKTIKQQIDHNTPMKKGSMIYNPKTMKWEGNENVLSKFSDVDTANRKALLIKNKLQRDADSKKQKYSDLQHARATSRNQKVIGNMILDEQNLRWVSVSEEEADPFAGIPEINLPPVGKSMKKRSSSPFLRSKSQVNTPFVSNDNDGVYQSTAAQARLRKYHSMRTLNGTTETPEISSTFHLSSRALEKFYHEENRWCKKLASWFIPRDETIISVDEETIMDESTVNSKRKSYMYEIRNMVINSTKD

MBP-Bub2 = molecular target: T3, MBP-Bub2 (yeast, UniProt P26448 1-306)
T3 sequence: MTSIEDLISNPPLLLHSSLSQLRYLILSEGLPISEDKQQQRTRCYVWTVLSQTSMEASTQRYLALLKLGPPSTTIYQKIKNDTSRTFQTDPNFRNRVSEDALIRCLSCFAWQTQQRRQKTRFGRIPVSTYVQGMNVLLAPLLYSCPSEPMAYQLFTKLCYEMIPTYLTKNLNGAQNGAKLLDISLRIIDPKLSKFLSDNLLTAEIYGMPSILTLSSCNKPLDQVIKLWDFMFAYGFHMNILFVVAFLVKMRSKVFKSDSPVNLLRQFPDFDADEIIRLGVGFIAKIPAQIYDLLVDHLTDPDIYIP

binding result [1]: binds
B1: MBP-Cdc14 (natural protein)
chain: MRRSVYLDNTIEFLRGRVYLGAYDYTPEDTDELVFFTVEDAIFYNSFHLDFGPMNIGHLYRFAVIFHEILNDPENANKAVVFYSSASTRQRANAACMLCCYMILVQAWTPHQVLQPLAQVDPPFMPFRDAGYSNADFEITIQDVVYGVWRAKEKGLIDLHSFNLESYEKYEHVEFGDFNVLTPDFIAFASPQEDHPKGYLATKSSHLNQPFKSVLNFFANNNVQLVVRLNSHLYNKKHFEDIGIQHLDLIFEDGTCPDLSIVKNFVGAAETIIKRGGKIAVHCKAGLGRTGCLIGAHLIYTYGFTANECIGFLRFIRPGMVVGPQQHWLYLHQNDFREWKYTTRISLKPSEAIGGLYPLISLEEYRLQKKKLKDDKRVAQNNIEGELRDLTMTPPSNGHGALSARNSSQPSTANNGSNSFKSSAVPQTSPGQPRKGQNGSNTIEDINNNRNPTSHANRKVVIESNNSDDESMQDTNGTSNHYPKVSRKKNDISSASSSRMEDNEPSATNINNAADDTILRQLLPKNRRVTSGRRTTSAAGGIRKISGSIKK

binding result (MBP-Bfa1): binds
binding result (MBP-Bub2): binds
B2: His6-Tem1 (natural protein)
chain: MATPSTGANNSIPAVRNQVEVQVGLVGDAQVGKTSLMVKYVQNIYDKEYTQTLGVNFLKRKVSIRSTDIIFSIMDLGGQREFINMLPIATVGSSVIIFLFDLTRPETLSSIKEWYRQAYGLNDSAIPILVGTKYDLLIDLDPEYQEQISRTSMKYAQVMNAPLIFCSTAKSINIQKIFKIALAKIFNLTLTIPEINEIGDPLLIYKHLGGQQHRHHNKSQDRKSHNIRKPSSSPSSKAPSPGVNT

binding result (MBP-Bfa1): binds
B3: GST-Bub2 (natural protein)
chain: T3 sequence
